The values below come from article PMC6886522.

Data set [1] has as its system O=C(O)c1ccccc1N[C@@H]1O[C@H](COP(=O)(O)O)[C@@H](O)[C@H]1O. As to the kind of experiment: purified protein.
The test system of data set [2] is NC(=O)c1ncn([C@@H]2O[C@H](COP(=O)(O)O)[C@@H](O)[C@H]2O)c1N=CN[C@@H]1O[C@H](COP(=O)(O)O)[C@@H](O)[C@H]1O. Briefly: purified protein.
Substrate in data set [3]: O=C(O)c1ccccc1N[C@@H]1O[C@H](COP(=O)(O)O)[C@@H](O)[C@H]1O
As to the kind of experiment: PRA isomerase steady-state kinetics. The format is biochemical, Streptomyces globisporus.

Substrate in data set [4]: NC(=O)c1ncn([C@@H]2O[C@H](COP(=O)(O)O)[C@@H](O)[C@H]2O)c1N=CN[C@@H]1O[C@H](COP(=O)(O)O)[C@@H](O)[C@H]1O
Briefly: ProFAR isomerase steady-state kinetics. The format is biochemical, Streptomyces globisporus.

Substrate in data set [5]: O=C(O)c1ccccc1N[C@@H]1O[C@H](COP(=O)(O)O)[C@@H](O)[C@H]1O
As to the kind of experiment: PRA isomerase steady-state kinetics. The format is biochemical, Streptomyces sviceus.

Substrate in data set [6]: NC(=O)c1ncn([C@@H]2O[C@H](COP(=O)(O)O)[C@@H](O)[C@H]2O)c1N=CN[C@@H]1O[C@H](COP(=O)(O)O)[C@@H](O)[C@H]1O
Briefly: ProFAR isomerase steady-state kinetics. The format is biochemical, Mycolicibacterium smegmatis. The conditions noted are these: pH 7.5.

Substrate in data set [7]: O=C(O)c1ccccc1N[C@@H]1O[C@H](COP(=O)(O)O)[C@@H](O)[C@H]1O
As to the kind of experiment: PRA isomerase steady-state kinetics. The format is biochemical, Mycolicibacterium smegmatis. The conditions noted are these: pH 7.5.

Substrate in data set [8]: O=C(O)c1ccccc1N[C@@H]1O[C@H](COP(=O)(O)O)[C@@H](O)[C@H]1O
As to the kind of experiment: PRA isomerase steady-state kinetics. The format is biochemical, Jonesia denitrificans.

Substrate in data set [9]: O=C(O)c1ccccc1N[C@@H]1O[C@H](COP(=O)(O)O)[C@@H](O)[C@H]1O
As to the kind of experiment: PRA isomerase steady-state kinetics. The format is biochemical, Streptomyces sp. C.

Substrate in data set [10]: NC(=O)c1ncn([C@@H]2O[C@H](COP(=O)(O)O)[C@@H](O)[C@H]2O)c1N=CN[C@@H]1O[C@H](COP(=O)(O)O)[C@@H](O)[C@H]1O
Briefly: ProFAR isomerase steady-state kinetics. The format is biochemical, Streptomyces sp. C.

Substrate in data set [11]: NC(=O)c1ncn([C@@H]2O[C@H](COP(=O)(O)O)[C@@H](O)[C@H]2O)c1N=CN[C@@H]1O[C@H](COP(=O)(O)O)[C@@H](O)[C@H]1O
As to the kind of experiment: ProFAR isomerase steady-state kinetics. The format is biochemical, Streptomyces sviceus.

Substrate in data set [12]: O=C(O)c1ccccc1N[C@@H]1O[C@H](COP(=O)(O)O)[C@@H](O)[C@H]1O
Briefly: PRA isomerase steady-state kinetics. The format is biochemical, Streptomyces ipomoeae.

Substrate in data set [13]: NC(=O)c1ncn([C@@H]2O[C@H](COP(=O)(O)O)[C@@H](O)[C@H]2O)c1N=CN[C@@H]1O[C@H](COP(=O)(O)O)[C@@H](O)[C@H]1O
As to the kind of experiment: ProFAR isomerase steady-state kinetics. The format is biochemical, Streptomyces ipomoeae.

By Km is commonly meant the concentration of substrate that gives half-maximal velocity. The term kcat denotes the number of substrate molecules converted per active site and unit of time at saturation. Usually kcat/Km stands for the turnover number divided by the Michaelis constant. In the case of PriB_SMg1 (Streptomyces sp.), in [1], the Km turned out to be 129.6 ± 34 µM, the kcat stood at 0.29 ± 0.04 s⁻¹ and the catalytic efficiency (kcat/Km) is 2200 M⁻¹ s⁻¹. Further, in data set [2], the Km was 13.2 ± 3.4 µM, the catalytic constant (kcat) is 0.92 ± 0.19 s⁻¹ and the kcat/Km amounted to 69000 M⁻¹ s⁻¹.

B1: PriA_Sglo (Streptomyces globisporus) (protein)
chain: MPKLELLPAVDVRDGQAVRLVHGESGSETSYGSPLEAALAWQSAGAEWLHLVDLDAAFGTGDNRALIAEVAGAMDIKVELSGGIRDDASLEAALATGCRRVNLGTAALETPEWVAKVIAEHGDKIAVGLDVRGTTLRGRGWTRDGGDLYETLARLDAEGCARYVVTDIAKDGTLEGPNLGLLRDVCAVTDRPVVASGGVSSLDDLRAISLLVPEGVEGAIVGKALYAKAFTLEEALKAVAA
Take B1: in [3], the Km was determined as 11 ± 1.0 µM, the turnover number (kcat) was determined as 3.8 ± 0.2 s⁻¹ and the kcat/Km stood at 340000 M⁻¹ s⁻¹. Besides, in [4], the Km came out at 4.2 ± 0.8 µM, the catalytic constant (kcat) was determined as 0.74 ± 0.03 s⁻¹ and the kcat/Km was 180000 M⁻¹ s⁻¹.

B2: TrpF-3_Ssvi (Streptomyces sviceus ATCC 29083) (protein)
chain: MTLFVKICGLRTEQDVDTAVEAGADAIGFVFSDSPRRIDPAAAARLAARIPESVLTVGVFRREPLEYVRSVAAESGIGAVQLHGPEDRAYYDELSGGGWTLIRAAAFGDRVPRCGELGEDMLLLDAPVPGSGIAWDWSRKQVAGAGEKWLLAGGLTPENVREAVDVTRPWGVDVSSGVEASRGVKNPALITAFVEAARAGAVTSG
With B2, in data set [5], the Michaelis-Menten constant (Km) was determined as 9.4 ± 0.47 µM, the turnover number (kcat) is 0.82 ± 0.08 s⁻¹ and the catalytic efficiency (kcat/Km) came to 88000 M⁻¹ s⁻¹.

B3: PriA_Msme (Mycolicibacterium smegmatis MC2 155) (protein)
chain: MATGATEAAGAGKRGLILLPAVDVVNGQAVRLVQGKAGSETDYGSAIEAAEAWQRDGAEWIHLVDLDAAFGRGSNRELLAEVVGKLDVAVELSGGIRDDESLRAALDTGCARVNIGTAALENPQWCARAIAEHGDRVAVGLDAQTDGAGGFRLRGRGWETDGGDLWEVLDRLDSEGCSRYVVTDVSKDGTLTGPNLDLLAAVAGRTDAPVIASGGVSSLDDLRAIATLTGVGVEGAIVGKALYAGRFTLPQALSAVSG
B3: in [6], the Km amounted to 2.6 ± 0.5 µM, the kcat was 0.85 ± 0.04 s⁻¹ and the kcat/Km turned out to be 330000 M⁻¹ s⁻¹. Also, in [7], the Km was 7.9 ± 2.4 µM, the kcat was determined as 3.1 ± 0.43 s⁻¹ and the kcat/Km amounted to 390000 M⁻¹ s⁻¹.

B4: TrpF-3_Jden (Jonesia denitrificans DSM 20603) (protein)
chain: MYIKVCGLTDPHAIDAAQAAHVDAIGFVHAPTSPRHLTPPHISTLTATVDCTIDTVLVVATTPIADALALAESTGVSVLQLHGQYSDDDVAYAAARFPRVWRATSLSASPNLTVGAYGEELLLLDAPQAGSGHTWDFAALAHRRPTGRWLLAGGLTPDNVADAITTTSPWGVDVSSGVESAPGVKDPAKIAAFVQAARGVSCPR
For B4, in data set [8], the Michaelis-Menten constant (Km) turned out to be 16.8 ± 3.3 µM, the turnover number (kcat) came to 27 ± 1.6 s⁻¹ and the kcat/Km is 1.6e+06 M⁻¹ s⁻¹.

B5: PriB_SspC (Streptomyces sp. C) (protein)
chain: MPNTLELLPAVDVRDGQAVRLVHGVSGSETSYGSPLEAALAWQASGAEWLHLVDLDAAFGTGDNRALVADITRAMDIKVELSGGIRDDATLAAALATGCTRVNLGTAALETPEWAAKAIAEHGDRIAIGLDVRGTTLKGRGWTSEGGDLYETLARLDSEGCARYVVTDIGKDGTLTGPNLELLKNVCAATDRPVVASGGVSSLDDLRALSELVPLGVEGAIVGKALYAKAFTLEEALEAVRA
On to B5, for which, in [9], the Km came to 149.9 ± 29 µM, the turnover number (kcat) came out at 1.4 ± 0.12 s⁻¹ and the kcat/Km turned out to be 9000 M⁻¹ s⁻¹. Besides, in data set [10], the Km turned out to be 11.4 ± 3.4 µM, the turnover number (kcat) was determined as 2.53 ± 0.74 s⁻¹ and the catalytic efficiency (kcat/Km) was determined as 220000 M⁻¹ s⁻¹.

B6: PriB_Ssvi (Streptomyces sviceus ATCC 29083) (protein)
chain: MPSKLSRLELLPAVDVRDGQAVRLVHGESGTETSYGSPLEAALSWQRAGAEWLHLVDLDAAFGTGDNRELVRQVTEAMDIKVELSGGIRDDASLAAALATGCTRVNLGTAALESPEWVAKVIAEHGDRIAVGLDVRGTTLKGRGWTSEGGDLYEALERLDKEGCARYVVTDIAKDGTLQGPNLELLRNVCAATDRPVVASGGVSSLDDLRAIAELVPLGVEGSIVGKALYAKAFTLEEALEAVAQ
For the molecule B6, in data set [11], the Michaelis constant (Km) worked out at 3.9 ± 0.89 µM, the kcat is 0.69 ± 0.04 s⁻¹ and the catalytic efficiency (kcat/Km) came out at 180000 M⁻¹ s⁻¹. Moreover, in data set [5], the Michaelis constant (Km) amounted to 24.5 ± 4.0 µM, the kcat is 1.6 ± 0.29 s⁻¹ and the specificity constant (kcat/Km) was found to be 67000 M⁻¹ s⁻¹.

B7: TrpF-3_Sipo (Streptomyces ipomoeae 91-03) (protein)
chain: MSVSNSNDSLFIKICGLRTERDVDTAVEAGADAVGFVFSASPRQIDADTAARLCDRVPEHVLTVGVFRDEPLRDVRSFATDSGIRAVQLHGPEDRAYYDDLAKGDWTLIRAAAFGDTVPRCGEFGEDMLLIDAPVPGSGIAWDWSSKPLAGSGERWILAGGLSPENVRDAVAATQPWGVDVSSGVELSRGVKDPALITEFVKAVRGGC
Turning to B7, in data set [12], the Km amounted to 23.0 ± 1.3 µM, the kcat amounted to 4.3 ± 0.35 s⁻¹ and the catalytic efficiency (kcat/Km) was determined as 190000 M⁻¹ s⁻¹.

B8: PriB_Sipo (Streptomyces ipomoeae 91-03) (protein)
chain: MAKLELLPAVDVRDGQAVRLVHGESGTETSYGSPLEAALAWQRAGAEWLHLVDLDAAFGTGDNRDLVAEVTRAMDIKVELSGGIRDDASLAKALATGCTRVNLGTAALETPEWVAKVIAEHGDKIAVGLDVKGTTLRGRGWTRDGGDLYETLERLDKEGCARYVVTDIAKDGTLQGPNLELLRNVCAATDRPVVASGGVSSLDDLRAIAELVPLGVEGAIVGKALYAKAFTLEEALEATS
With B8, in data set [13], the Michaelis-Menten constant (Km) came to 3.8 ± 0.2 µM, the kcat was found to be 0.82 ± 0.02 s⁻¹ and the specificity constant (kcat/Km) came to 210000 M⁻¹ s⁻¹. In [12], the Km is 60.8 ± 1.1 µM, the catalytic constant (kcat) was 8.25 ± 0.4 s⁻¹ and the catalytic efficiency (kcat/Km) was found to be 140000 M⁻¹ s⁻¹.
